Positions count from the first letter of the chain named. Values joined by “and” are separate entries in the source; they are usually repeats but may differ in a detail not shown here. Identical values can stand only once. Values belong to the molecule of their own block, whether it stands above or below them.
Legend:
[1] = biological target: Dynamin-Related Protein 1 (Drp1) isoform 2 (human); assay: SEC; gel filtration of the purified untagged isoforms; data not shown
[2] = biological target: the molecule itself; assay: as above
[3] = biological target: the molecule itself; assay: SEC; Drp1 (1 uM) incubated with GTP (1 mM) without liposomes in KCl buffer with 4 mM MgCl2, 30 min, 37 C; Sephadex S200; fractions immunoblotted with anti-Drp1

stoichiometry N [1]: 2 and 4
Molecule: Dynamin-Related Protein 1 (Drp1) isoform 2 (natural protein)

B1: Dynamin-Related Protein 1 (Drp1) isoform 3 (natural protein, human, UniProt O00429-4 1-699, looked up)
chain: MEALIPVINKLQDVFNTVGADIIQLPQIVVVGTQSSGKSSVLESLVGRDLLPRGTGIVTRRPLILQLVHVSQEDKRKTTGEENGVEAEEWGKFLHTKNKLYTDFDEIRQEIENETERISGNNKGVSPEPIHLKIFSPNVVNLTLVDLPGMTKVPVGDQPKDIELQIRELILRFISNPNSIILAVTAANTDMATSEALKISREVDPDGRRTLAVITKLDLMDAGTDAMDVLMGRVIPVKLGIIGVVNRSQLDINNKKSVTDSIRDEYAFLQKKYPSLANRNGTKYLARTLNRLLMHHIRDCLPELKTRINVLAAQYQSLLNSYGEPVDDKSATLLQLITKFATEYCNTIEGTAKYIETSELCGGARICYIFHETFGRTLESVDPLGGLNTIDILTAIRNATGPRPALFVPEVSFELLVKRQIKRLEEPSLRCVELVHEEMQRIIQHCSNYSTQELLRFPKLHDAIVEVVTCLLRKRLPVTNEMVHNLVAIELAYINTKHPDFADACGLMNNNIEEQRRNRLARELPSAVSRDKVASGGGGVGDGVQEPTTGNWRGMLKTSKAEELLAEEKSKPIPIMPASPQKGHAVNLLDVPVPVARKLSAREQRDCEVIERLIKSYFLIVRKNIQDSVPKAVMHFLVNHVKDTLQSELVGQLYKSSLLDDLLTESEDMAQRRKEAADMLKALQGASQIIAEIRETHLW
notes: ORF amplified by PCR and cloned into pTYB1; numbers count on: isoform 3; also called Variant 3; Isoform-3 WT; source: E. coli Rosetta, purified (chitin resin with thiol-induced cleavage, Q sepharose, Sephadex S200)
stoichiometry N [2]: 2 and 4

B2: Drp1 isoform 3 K557-560-569-571A (4KA mutant) (natural protein, human, UniProt O00429-4 1-699, looked up)
chain: B1 chain with K557A, K560A, K569A, K571A
notes: Dynamin-related protein 1 (Drp1), human, splice variant 3 (lacking 37 residues in the B insert), all four B insert lysines replaced by alanine; numbers count on: isoform 3; also called Drp1-4KA; Drp1 4KA mutant; source: E. coli Rosetta, purified (chitin resin with thiol-induced cleavage, Q sepharose, Sephadex S200)
binding result [3]: binds

— PMC4103857, “Specific Interaction with Cardiolipin Triggers Functional Activation of Dynamin-Related Protein 1” (PLoS ONE, 2014)
